Assay results reported in US20080260713.

Target: T1, human regulatory myosin light chain, his-tagged
T1 chain: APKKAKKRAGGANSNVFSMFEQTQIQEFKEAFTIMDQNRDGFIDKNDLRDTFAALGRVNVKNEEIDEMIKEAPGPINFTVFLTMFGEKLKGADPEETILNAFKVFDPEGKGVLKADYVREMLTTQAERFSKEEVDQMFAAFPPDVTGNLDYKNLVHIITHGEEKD

B1: recombinant human neukinase, His-tagged (protein)
chain: MSGTSKESLGHGGLPGLGKTCLTTMDTKLNMLNEKVDQLLHFQEDVTEKLQSMCRDMGHLERGLHRLEASRAPGPGGADGVPHIDTQAGWPEVLELVRAMQQDAAQHGARLEALFRMVAAVDRAIALVGATFQKSKVADFLMQGRVPWRRGSPGDSPEENKERVEEEGGKPKHVLSTSGLQSDAREPGEESQKADVLEGTAERLPPIRASGLGADPAQAVVSPGQGDGVPGPAQAFPGHLPLPTKVEAKAPETPSENLRTGLELAPAPGRVNVVSPSLEVAPGAGQGASSSRPDPEPLEEGTRLTPGPGPQCPGPPGLPAQARATHSGGETPPRISIHIQEMDTPGEMLMTGRGSLGPTLTTEAPAAAQPGKQGPPGTGRCLQAPGTEPGEQTPEGARELSPLQESSSPGGVKAEEEQRAGAEPGTRPSLARSDDNDHEVGALGLQQGKSPGAGNPEPEQDCAARAPVRAEAVRRMPPGAEAGSVVLDDSPAPPAPFEHRVVSVKETSISAGYEVCQHEVLGGGRFGQVHRCTEKSTGLPLAAKIIKVKSAKDREDVKNEINIMNQLSHVNLIQLYDAFESKHSCTLVMEYVDGGELFDRITDEKYHLTELDVVLFTRQICEGVHYLHQHYILHLDLKPENILCVNQTGHQIKIIDFGLARRYKPREKLKVNFGTPEFLAPEVVNYEFVSFPTDMWSVGVITYMLLSGLSPFLGETDAETMNFIVNCSWDFDADTFEGLSEEAKDFVSRLLVKEKSCRMSATQCLKHEWLNNLPAKASRSKTRLKSQLLLQKYIAQRKWKKHFYVVTAANRLRKFPTSP
B1 was tested, and the “rate of decrease of NADH absorbance at 340 nm (PK/LDH-coupled assay; 90 uM RLC, 1 uM CaM, 0.3 uM CaCl2, 100 nM neukinase)” value was “ΔOD/min/nmol nukinase=0.0152/min/nmol neukinase”.
